Measurements: publication PMC4520091

Tests used:
yPrp3CTF [1] = assay: EMSA; conditions: tRNA competitor, EMSA: 20 mM Tris-HCl pH 7.0, 150 mM NaCl, 2 mM DTT, 0.5 ug/ul tRNA, 4 C, titrations: 20 mM HEPES pH 6.8, 150 mM NaCl, 0.33 ug/ul tRNA, human FL/N/C: 10 mM Tris …
yPrp3CTF [2] = assay: ITC; conditions: 20 C, GAGA-fused RNA; EMSA: 20 mM Tris-HCl pH 7.0, 150 mM NaCl, 2 mM DTT, 0.5 ug/ul tRNA, 4 C; titrations: 20 mM HEPES pH 6.8, 150 mM NaCl, 0.33 ug/ul tRNA; human FL/N/C: 10 mM Tris …
yPrp3CTF R304A [3] = assay: ITC; conditions: 20 C, GAGA-fused RNA; EMSA: 20 mM Tris-HCl pH 7.0, 150 mM NaCl, 2 mM DTT, 0.5 ug/ul tRNA, 4 C; titrations: 20 mM HEPES pH 6.8, 150 mM NaCl, 0.33 ug/ul tRNA; human FL/N/C: 10 mM Tris …
yPrp3DUF1115 [4] = assay: ITC; conditions: EMSA: 20 mM Tris-HCl pH 7.0, 150 mM NaCl, 2 mM DTT, 0.5 ug/ul tRNA, 4 C; titrations: 20 mM HEPES pH 6.8, 150 mM NaCl, 0.33 ug/ul tRNA; human FL/N/C: 10 mM Tris …
yPrp3CTF R322A [5] = assay: ITC; conditions: 20 C, GAGA-fused RNA; EMSA: 20 mM Tris-HCl pH 7.0, 150 mM NaCl, 2 mM DTT, 0.5 ug/ul tRNA, 4 C; titrations: 20 mM HEPES pH 6.8, 150 mM NaCl, 0.33 ug/ul tRNA; human FL/N/C: 10 mM Tris …
yPrp3CTF R304A [6] = assay: EMSA; conditions: tRNA competitor; apparent Kd; EMSA: 20 mM Tris-HCl pH 7.0, 150 mM NaCl, 2 mM DTT, 0.5 ug/ul tRNA, 4 C; titrations: 20 mM HEPES pH 6.8, 150 mM NaCl, 0.33 ug/ul tRNA; human FL/N/C: 10 mM Tris …
yPrp3DUF1115 [7] = assay: EMSA; conditions: tRNA competitor; apparent Kd; EMSA: 20 mM Tris-HCl pH 7.0, 150 mM NaCl, 2 mM DTT, 0.5 ug/ul tRNA, 4 C; titrations: 20 mM HEPES pH 6.8, 150 mM NaCl, 0.33 ug/ul tRNA; human FL/N/C: 10 mM Tris …
yPrp3CTF R322A [8] = assay: EMSA; conditions: tRNA competitor; apparent Kd; EMSA: 20 mM Tris-HCl pH 7.0, 150 mM NaCl, 2 mM DTT, 0.5 ug/ul tRNA, 4 C; titrations: 20 mM HEPES pH 6.8, 150 mM NaCl, 0.33 ug/ul tRNA; human FL/N/C: 10 mM Tris …

Substance | binding signal (fold lower affinity than wt) (yPrp3CTF [1]) | Kd (yPrp3CTF [2]) | Kd (yPrp3CTF R304A [3]) | Kd (yPrp3DUF1115 [4]) | Kd (yPrp3CTF R322A [5]) | Kd (yPrp3CTF [1]; apparent Kd) | Kd (yPrp3CTF R304A [6]) | Kd (yPrp3DUF1115 [7]) | Kd (yPrp3CTF R322A [8])
yU4/U6 stem II+13nt U6 C69G | 2 |  |  |  |  |  |  |  | 
yU4/U6 stem II+13nt U4 C12G | 2 |  |  |  |  |  |  |  | 
yU4/U6 stem II+13nt |  | 110 nM | 260 nM | 380 nM | 400 nM | 920 nM | 1580 nM | 1830 nM | 2630 nM
